{"source": "patent US10052364B2", "about": "“Osteocalcin as a treatment for cognitive disorders” (THE TRUSTEES OF COLUMBIA UNIVERSITY IN THE CITY OF NEW YORK, priority 2013, dated 2018)", "molecules": {"B1": {"name": "uncarboxylated osteocalcin: Recombinant osteocalcin bacterially produced, cleaved from the GST subunit; completely undercarboxylated at all three sites (protein, listed as Homo sapiens)", "chain": "MRALTLLALLALAALCIAGQAGAKPSGAESSKGAAFVSKQEGSEVVKRPRRYLYQWLGAPVPYPDPLEPRREVCELNPDCDELADHIGFQEAYRRFYGPV", "modifications": "uncarboxylated", "notes": "Recombinant osteocalcin bacterially produced, cleaved from the GST subunit; completely undercarboxylated at all three sites"}}, "key": {"aged WT mice": {"tested_on": "aged WT mice", "experiment": "ICV infusion in aged WT mice, Novel Object Recognition test", "assay_type": "in vivo, mouse", "conditions": "ICV 10 ng/hr for one month, 16 month old WT mice", "experimental": "FIG. 9. Osteocalcin improves hippocampal function in aged wild-type (WT) mice. Constant and novel object investigation in the Novel Object Recognition test in 17 month old mice treated for 1 month with vehicle or 10 ng/hr recombinant uncarboxylated osteocalcin.\nICV pumps delivering (10 ng/hr) recombinant uncarboxylated full-length mouse osteocalcin were implanted in 16 month old WT mice. After an infusion period of one month, the mice were subjected to a modified version of the Novel Object Recognition test, to assay memory and hippocampal function. Briefly, mice were given five 5 minute exposures, with 3 minute resting intervals between exposures, to a novel arena containing two objects. During exposures 1-4, mice were habituated to these two objects, which elicited equal amounts of exploration. In the fifth exposure, one of the objects was replaced with a novel object."}, "[1]": {"tested_on": "brainstem and midbrain explants from WT and Gprc6a-/- mice", "experiment": "Gene expression (qPCR) in brainstem and midbrain explants", "assay_type": "cell-based, mouse", "experimental": "For gene expression studies, RNA was isolated from primary neurons or tissue using TRIZOL® (Invitrogen). cDNA synthesis was performed following a standard protocol from Invitrogen and qPCR analyses were done using specific quantitative PCR primers from SABiosciences (www.sabiosciences.com/RT2PCR.php).\nBrains were dissected and incubated for 30 minutes in ice cold oxygenated artificial cerebrospinal fluid (ACSF). Brains were then sliced at 500 μm at the midbrain, −1.55 to −2.35 mm from the bregma, and at the level of the brainstem, from −4.04 to −4.48 mm and from −4.60 to −5.20 mm from the bregma, to include the median and dorsal raphe, respectively. These slices were incubated in ACSF for 1 h, constantly oxygenated (95% 02 and 5% CO2) for 4 h, after which they were treated with either osteocalcin (10 ng/ml) or PBS for four hours. Expression of Tph2, TH, GAD1, GAD2, and Ddc was measured by qPCR.\nTo determine if osteocalcin acts directly on neurons to modulate neurotransmitter synthesis, several types of assays were performed. First, brainstem and midbrain explants from WT and Gprc6a^−/− mice were generated. Brains were sliced (500 μm) at the level of the median and dorsal raphe of the brainstem (from −4.04 to −4.48 mm and from −4.60 to −5.20 mm, respectively), so that they would be enriched in serotonin-producing neurons, as well as at the level of substantia nigrae and ventral tegmental areas (VTA) of the midbrain (from −1.55 to −2.35 mm and from −2.55 to −3.25 mm, respectively). Enrichment in serotoninergic and catecholaminergic neurons in these explants was verified by their high Tph2 and Th expression. While leptin, used here as a positive control, reduced, as it should, Tph2 expression in WT or Gprc6a^−/− brainstem explants, osteocalcin (3 ng/ml) increased expression of this gene 2.5 fold in both WT and Gprc6a^−/− explants. (FIG. 3D). Additionally, osteocalcin increased Th expression in midbrain explants and decreased Gad1 expression in both WT and in Gprc6a^−/− hindbrain explants (FIG. 3D). Second, the cultured WT and Gprc6a^−/− mouse primary hindbrain neurons (MPHN) were treated with osteocalcin (3 ng/ml). […] Third, to further confirm that osteocalcin signals in neurons of the hindbrain, calcium flux in MPHN treated with undercarboxylated or carboxylated osteocalcin (FIG. 3F) was measured. […] Moreover, osteocalcin inhibits the action potential frequency of the GABAergic interneurons of the hindbrain (FIG. 3H)."}, "[2]": {"tested_on": "neurons in the brain (WT brain sections)", "experiment": "Binding of biotinylated osteocalcin to brain sections (anti-biotin immunofluorescence, competition)", "set-up": "species or system mouse", "experimental": "FIG. 3. Osteocalcin binds to neurons in the brain. (A) Measurement of the total osteocalcin in 3 month-old Osteocalcin^−/− mice infused subcutaneously for 7 days with either uncarboxylated osteocalcin (300 ng/hour, right panel) or PBS (left panel). Osteocalcin levels were measured in bone, serum, and different parts of the brain (cortex, midbrain, hypothalamus, brainstem, and cerebellum). (B) Subcutaneous infusion of leptin ([…], right panel) or PBS (left panel) for 7 days in ob/ob mice. Leptin levels were measured in serum, cortex, midbrain, hypothalamus, brainstem, and cerebellum. (C) Binding of GST-biotin (30 μg/ml) (panel 1) and biotinylated osteocalcin (300 ng/ml) (panels 2-4) to the dorsal (DR) and median (MR) raphe nuclei of the brainstem (identified by anti-5-HT immunofluorescence), to the ventral tegmental area (VTA) of the midbrain (identified by anti-TH immunofluorescence), and to the CA3 and CA4 of the hippocampus (identified anatomically). […] Binding with GST-biotin, osteocalcin-biotinylated, and competition assays were performed on adjacent sections. (D) Expression of Tph2 and GAD 1 in brainstem, and Th in midbrain explants from WT and Gprc6a^−/− mice, treated with 10 ng/ml osteocalcin or vehicle. (E) Gene expression in WT primary hindbrain neuron cultures treated with 10 ng/ml osteocalcin or vehicle. (F) Calcium flux response of primary hindbrain cultured neurons to osteocalcin treatment. (G-H) Extracellular current recordings of (G) neurons of the dorsal raphe nucleus and (H) GABAergic interneurons of the brainstem treated with osteocalcin (10 ng/ml).\nBrains from 8-week-old mice were snap-frozen in isopentane, and […] thick sections were prepared and desiccated overnight at 4° C. under vacuum. On the following day, sections were rehydrated in ice-cold binding buffer (50 mM TrisHCl [pH 7.4], 10 mM MgCl2, 0.1 mM EDTA and 0.1% BSA) for 15 min and incubated for 1 hr in the presence of biotinylated osteocalcin (3, 30, 300, 3000 ng/ml) or biotynylated recombinant GST as a control ([…]). After washing in harvesting buffer (50 mM Tris-HCl, pH 7.4), samples were fixed in 4% paraformaldehyde for 15 min, washed in PBS and incubated with goat anti-biotin antibody (1:1000, Vector laboratories) over night at 4° C. Signal was visualized by incubating with anti-goat IgG Cy-3 using Leica DM 5000B microscope (Leica). The binding assays were perform on adjacent sections for each conditions tested.\nThis accumulation in discrete regions of the brain raised the question of whether osteocalcin binds to specific neurons in the brain. This was tested by incubating sections of adult or embryonic (E18.5) WT brains with biotinylated undercarboxylated osteocalcin or GST-biotin alone (30 μg/ml), followed by immunofluorescence analysis using an anti-biotin antibody. […]"}, "[3]": {"conditions": "biotinylated undercarboxylated osteocalcin, WT brain sections"}}, "data": [{"molecule": "B1", "values": [{"measurement": "discrimination between novel and constant objects", "setting": "aged WT mice", "value": "able to discriminate between the novel and constant objects"}, {"measurement": "Tph2 expression in brainstem explants", "setting": "[1]; osteocalcin 3 ng/ml, WT and Gprc6a-/- explants", "value": 2.5, "unit": "fold"}, {"measurement": "Gad1 expression in hindbrain explants", "setting": "[1]; osteocalcin, WT and Gprc6a-/- hindbrain explants", "value": "decreased"}, {"measurement": "Th expression in midbrain explants", "setting": "[1]; osteocalcin, midbrain explants", "value": "increased"}, {"measurement": "binding in the brainstem", "setting": "[2]; [3]", "value": "bound to neurons of the raphe nuclei"}, {"measurement": "binding in the midbrain", "setting": "[2]; [3]", "value": "bound to the ventral tegmental area and the substantia nigrae"}, {"measurement": "binding to neuronal populations of the brain", "setting": "[2]; biotinylated undercarboxylated osteocalcin, adult or E18.5 WT brain sections", "value": "bound to several neuronal populations in the forebrain, midbrain, and brainstem"}, {"measurement": "specificity of binding in the midbrain and brainstem (competition)", "setting": "[2]; excess of unlabeled osteocalcin versus excess of GST", "value": "specific"}]}]}
